Results published in patent US20120251547A1 (Amgen, published 2012).
Numbering of substitutions follows the chain as printed. Blank lines part the entries; values can stand above or below the binder they belong to.

How the values were obtained:
[1] = target: T1, cynomolgus IL-17RA, on cells (cynomolgus); assay: FACS competition: non-clonal supernatant inhibiting biotin-huIL-17A (competitor) binding to cyno IL-17RA+ CHO cells
T1 construct: whole, on cells; also called CHO-cynoIL-17RA; cyno IL-17RA+ CHO cells

huIL-17RA-FLAG-polyHis [2] = target: T2, huIL-17RA-FLAG-polyHis (human, UniProt Q96F46 33-320); assay: binning; IL-17RA held by bead mAb L
T2 construct: also called IL-17RA-FLAG-pHis; wild-type IL-17RA
Procedure: (§1) The method employed the Bio-Plex Workstation and software (BioRad, Hercules, Calif.), as well as reagents from Luminex® Corp. (Austin, Tex.). […] The mouse-anti-human IgG coating was evaluated and the beads quantified by FACS. Each bead code was separately incubated with 10 ul of anti-IL-17RA antibody for 1 hour at room temperature and then washed. The beads were pooled and then dispensed to a 96-well filter plate (Millipore, Billerica, Mass., product #MSBVN1250). […] The PE-tagged monovalent antibody will detect the presence of the second mAb added to the well, but not the first mAb captured by the monovalent mouse-anti-human IgG antibody. Beads were resuspended in 120u1 PBSAT and at least 100 events/bead code were collected on the Bio-Plex workstation as per the manufacturer's recommended protocol.

huIL-17RA-FLAG-polyHis [3] = target: T2, huIL-17RA-FLAG-polyHis; assay: binning; IL-17RA held by bead mAb H
Procedure: as §1

huIL-17RA-FLAG-polyHis [4] = target: T2, huIL-17RA-FLAG-polyHis; assay: binning; IL-17RA held by bead mAb P
huIL-17RA-FLAG-polyHis [5] = target: T2, huIL-17RA-FLAG-polyHis; assay: binning; IL-17RA held by bead mAb E
Procedure: as §1

huIL-17RA-FLAG-polyHis [6] = target: T2, huIL-17RA-FLAG-polyHis; assay: binning; IL-17RA held by bead mAb A
Procedure: as §1

huIL-17RA-FLAG-polyHis [7] = target: T2, huIL-17RA-FLAG-polyHis; assay: binning; IL-17RA held by bead mAb R
Procedure: as §1

huIL-17RA-FLAG-polyHis [8] = target: T2, huIL-17RA-FLAG-polyHis; assay: binning; IL-17RA held by bead mAb N
Procedure: (§2) The method employed the Bio-Plex Workstation and software (BioRad, Hercules, Calif.), as well as reagents from Luminex® Corp. (Austin, Tex.). The manufacturers' basic protocols were followed except where noted below (see www.bio-rad.com and www.luminexcorp.com for details). […] The mouse-anti-human IgG coating was evaluated and the beads quantified by FACS. Each bead code was separately incubated with 10 ul of anti-IL-17RA antibody for 1 hour at room temperature and then washed. The beads were pooled and then dispensed to a 96-well filter plate (Millipore, Billerica, Mass., product #MSBVN1250). […] The PE-tagged monovalent antibody will detect the presence of the second mAb added to the well, but not the first mAb captured by the monovalent mouse-anti-human IgG antibody. Beads were resuspended in 120u1 PBSAT and at least 100 events/bead code were collected on the Bio-Plex workstation as per the manufacturer's recommended protocol.

huIL-17RA-FLAG-polyHis [9] = target: T2, huIL-17RA-FLAG-polyHis; assay: binning; IL-17RA held by bead mAb F
huIL-17RA-FLAG-polyHis [10] = target: T2, huIL-17RA-FLAG-polyHis; assay: binning; IL-17RA held by bead mAb I
Procedure: as §1

huIL-17RA-FLAG-polyHis [11] = target: T2, huIL-17RA-FLAG-polyHis; assay: binning; IL-17RA held by bead mAb G
Procedure: as §1

huIL-17RA-FLAG-polyHis [12] = target: T2, huIL-17RA-FLAG-polyHis; assay: binning; IL-17RA held by bead mAb Q
Procedure: as §1

huIL-17RA-FLAG-polyHis [13] = target: T2, huIL-17RA-FLAG-polyHis; assay: binning; IL-17RA held by bead mAb C
Procedure: as §1

huIL-17RA-FLAG-polyHis [14] = target: T2, huIL-17RA-FLAG-polyHis; assay: binning; IL-17RA held by bead mAb M
Procedure: as §2

huIL-17RA-FLAG-polyHis [15] = target: T2, huIL-17RA-FLAG-polyHis; assay: binning; IL-17RA held by bead mAb D
huIL-17RA-FLAG-polyHis [16] = target: T2, huIL-17RA-FLAG-polyHis; assay: binning; IL-17RA held by bead mAb B
Procedure: as §1

huIL-17RA-FLAG-polyHis [17] = target: T2, huIL-17RA-FLAG-polyHis; assay: binning; IL-17RA held by bead mAb O
Procedure: as §1

huIL-17RA-FLAG-polyHis [18] = target: T2, huIL-17RA-FLAG-polyHis; assay: binning; IL-17RA held by bead mAb J
huIL-17RA-FLAG-polyHis [19] = target: T2, huIL-17RA-FLAG-polyHis; assay: binning; IL-17RA held by bead mAb K

MFI [1]: 9
B1: AMH5/AML5 (antibody, IgG2, V domains shown)
VH: QVQLQESGPGLVKPSETLPLTCTVSGGSIRSYYWSWIRQPAGKGLEWIGRIYRSGNTIYNPSLKSRVTMSIDTSKNQFSLTLSSVTAADTAVYYCARENYSESSGLYYYYGMDVWGQGTTVTVSS
VL: DIQMTQSPSSLSASVGDRVTITCRASQGIRNDLGWYQQKPGKAPKRLIYAASSFQSGVPSRFSGSGSGTGFTLTISSLQPEDFATYYCLQHNSYPPTFGQGTKVEIK
notes: human mAb from IgG2 XenoMouse mice; tested only as part of a non-clonal hybridoma supernatant; also called AM-5

MFI [1]: 11
B2: AMH1/AML1 (antibody, IgG2, V domains shown)
VH: QVQLQESGPGLVKPSETLSLTCTVSGGSISNYYWNWIRQSPGKGLEWIGDIYYSGSTNYNPSLKSRVTISVDTSKNQFSLKLSSVTTADTAVYYCARDGELANYYGSGSYQFYYYYGMDVWGQGTTVTVSS
VL: B1 VL with Q3L, F54L, G70E, Y94N, P96F, Q100P, E105D
notes: human mAb from IgG2 XenoMouse mice; also called AM-1; antibody H

normalized MFI (huIL-17RA-FLAG-polyHis [2]): 3540
normalized MFI (huIL-17RA-FLAG-polyHis [3]): 2950
normalized MFI (huIL-17RA-FLAG-polyHis [4]): 5960
normalized MFI (huIL-17RA-FLAG-polyHis [5]): 163
normalized MFI (huIL-17RA-FLAG-polyHis [6]): -178
normalized MFI (huIL-17RA-FLAG-polyHis [7]): 3950
normalized MFI (huIL-17RA-FLAG-polyHis [8]): 3630
normalized MFI (huIL-17RA-FLAG-polyHis [9]): 239
normalized MFI (huIL-17RA-FLAG-polyHis [10]): 6720
normalized MFI (huIL-17RA-FLAG-polyHis [11]): 346
normalized MFI (huIL-17RA-FLAG-polyHis [12]): 5500
normalized MFI (huIL-17RA-FLAG-polyHis [13]): 260
normalized MFI (huIL-17RA-FLAG-polyHis [14]): 2880
normalized MFI (huIL-17RA-FLAG-polyHis [15]): 264
normalized MFI (huIL-17RA-FLAG-polyHis [16]): 816
normalized MFI (huIL-17RA-FLAG-polyHis [17]): 5520
normalized MFI (huIL-17RA-FLAG-polyHis [18]): 3590
normalized MFI (huIL-17RA-FLAG-polyHis [19]): 8220
B3: AMH8/AML8 (antibody, IgG2, V domains shown)
VH: QVQLVQSGAEVKKPGASVKVSCKASGNTFTGYGISWVRQAPGQGLEWMGWISAYNGNTNYAQNLQGRVTMTTDTSTSTAYMELRSLRSDDTAVYYCARRDYDILTGYYNGFDPWGQGTLVTVSS
VL: B1 VL with F54L, G70E, N92K, P96L, Q100G
notes: human mAb from IgG2 XenoMouse mice; also called AM-8; antibody C

normalized MFI (huIL-17RA-FLAG-polyHis [2]): 3020
normalized MFI (huIL-17RA-FLAG-polyHis [3]): 8640
normalized MFI (huIL-17RA-FLAG-polyHis [4]): 6590
normalized MFI (huIL-17RA-FLAG-polyHis [5]): 300
normalized MFI (huIL-17RA-FLAG-polyHis [6]): -220
normalized MFI (huIL-17RA-FLAG-polyHis [7]): 7060
normalized MFI (huIL-17RA-FLAG-polyHis [8]): 2650
normalized MFI (huIL-17RA-FLAG-polyHis [9]): 345
normalized MFI (huIL-17RA-FLAG-polyHis [10]): 5300
normalized MFI (huIL-17RA-FLAG-polyHis [11]): 454
MFI [1]: 9
normalized MFI (huIL-17RA-FLAG-polyHis [12]): 9650
normalized MFI (huIL-17RA-FLAG-polyHis [13]): 330
normalized MFI (huIL-17RA-FLAG-polyHis [14]): 1860
normalized MFI (huIL-17RA-FLAG-polyHis [15]): 337
normalized MFI (huIL-17RA-FLAG-polyHis [16]): 1200
normalized MFI (huIL-17RA-FLAG-polyHis [17]): 3800
normalized MFI (huIL-17RA-FLAG-polyHis [18]): 2320
normalized MFI (huIL-17RA-FLAG-polyHis [19]): 7210
B4: AMH11/AML11 (antibody, IgG2, V domains shown)
VH: QVQLVESGGGVVQPGRSLRLSCATSGITFSSYGMHWVRQAPGKGLEWVAVIWYDGSNKYYADSVKGRFTISRDNSKNTLYLQMNSLRAEDTAVYYCARDTKDYWGQGTLVTVSS
VL: EIVMTQSPATLSVSPGERATLSCRASQSVSSNLAWYQQKPGQAPRLLIYGASTRAAGIPARFSGGGSGTAFTLTISNLQSEDFAVYYCQHYINWPKWTFGQGTKVDIK
notes: human mAb from IgG2 XenoMouse mice; also called AM-11; antibody A

normalized MFI (huIL-17RA-FLAG-polyHis [2]): 1980
normalized MFI (huIL-17RA-FLAG-polyHis [3]): 6790
normalized MFI (huIL-17RA-FLAG-polyHis [4]): 5020
normalized MFI (huIL-17RA-FLAG-polyHis [5]): 182
normalized MFI (huIL-17RA-FLAG-polyHis [6]): -326
normalized MFI (huIL-17RA-FLAG-polyHis [7]): 5880
normalized MFI (huIL-17RA-FLAG-polyHis [8]): 1950
normalized MFI (huIL-17RA-FLAG-polyHis [9]): 173
normalized MFI (huIL-17RA-FLAG-polyHis [10]): 3710
normalized MFI (huIL-17RA-FLAG-polyHis [11]): 235
normalized MFI (huIL-17RA-FLAG-polyHis [12]): 8280
normalized MFI (huIL-17RA-FLAG-polyHis [13]): 150
normalized MFI (huIL-17RA-FLAG-polyHis [14]): 1300
normalized MFI (huIL-17RA-FLAG-polyHis [15]): 213
normalized MFI (huIL-17RA-FLAG-polyHis [16]): 453
normalized MFI (huIL-17RA-FLAG-polyHis [17]): 2640
normalized MFI (huIL-17RA-FLAG-polyHis [18]): 1400
normalized MFI (huIL-17RA-FLAG-polyHis [19]): 4970
B5: AMH4/AML4 (antibody, IgG2, V domains shown)
VH: B4 VH with T24A, T28N, Y59H, K101G, D102V
VL: not shown
notes: human mAb from IgG2 XenoMouse mice; also called AM-4; antibody B
